Measured values as given in patent US11136351B2 (priority 2016, dated 2021).
No end group written: not given here.

Assays:
Format in all cases: cell-based
human α9α10 nAChR = target: T1, human α9α10 nAChR (Homo sapiens, UniProt Q9GZZ6+Q9UGM1); conditions: 3 μM
T1 construct: expressed in transfected cells; host or cells: Xenopus laevis oocytes

human α7 nAChR = target: T2, human α7 nAChR (Homo sapiens, UniProt P36544); conditions: 3 μM
T2 construct: expressed in transfected cells; host or cells: Xenopus laevis oocytes

[1] = tested on: HVA calcium channels in rat DRG neurons; conditions: for rat HVA Ca^2+ channel I/Icontrol ± SEM (n): 1 μM

T1 sequence (Q9UGM1 26-479 limits assumed): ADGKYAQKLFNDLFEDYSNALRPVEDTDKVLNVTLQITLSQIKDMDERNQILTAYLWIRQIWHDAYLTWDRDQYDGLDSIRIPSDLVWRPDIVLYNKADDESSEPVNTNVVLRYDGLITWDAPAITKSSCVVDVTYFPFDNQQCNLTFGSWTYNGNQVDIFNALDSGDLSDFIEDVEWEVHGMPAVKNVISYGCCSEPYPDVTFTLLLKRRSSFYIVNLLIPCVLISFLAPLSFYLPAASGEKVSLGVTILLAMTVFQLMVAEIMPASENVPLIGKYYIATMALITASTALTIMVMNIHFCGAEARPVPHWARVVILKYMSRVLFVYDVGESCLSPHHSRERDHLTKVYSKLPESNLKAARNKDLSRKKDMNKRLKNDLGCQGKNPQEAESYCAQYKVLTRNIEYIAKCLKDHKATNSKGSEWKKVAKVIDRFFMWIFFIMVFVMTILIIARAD
T1 sequence (Q9GZZ6 25-450): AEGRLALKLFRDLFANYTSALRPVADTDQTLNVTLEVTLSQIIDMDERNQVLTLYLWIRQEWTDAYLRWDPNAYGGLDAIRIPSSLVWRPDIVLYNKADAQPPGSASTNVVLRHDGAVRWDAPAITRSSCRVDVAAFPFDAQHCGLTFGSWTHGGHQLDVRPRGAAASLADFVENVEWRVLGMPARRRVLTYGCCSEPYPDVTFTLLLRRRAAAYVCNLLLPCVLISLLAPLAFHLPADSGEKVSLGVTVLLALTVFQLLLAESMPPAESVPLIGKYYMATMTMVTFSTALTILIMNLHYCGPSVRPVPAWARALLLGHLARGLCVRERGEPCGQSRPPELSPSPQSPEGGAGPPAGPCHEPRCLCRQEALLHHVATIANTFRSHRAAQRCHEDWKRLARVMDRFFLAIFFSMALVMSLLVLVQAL

**Q.** For “Pn1.2: native full length Pn1.2, SEQ ID No. 42: G C C S H P P C F L N N P D Y C (GCCSHPPCFLNNPDYC; not fully specified; ends and bridges not checked)”, which “human α9α10 nAChR I/Icontrol ± SEM (n)” value (human α9α10 nAChR) is on record?
**A.** The value was 0.012 ± 0.001 (4).

**Q.** And the “human α7 nAChR I/Icontrol ± SEM (n)” value (human α7 nAChR)?
**A.** The value was 0.006 ± 0.005 (5).

**Q.** And the “inhibition of HVA calcium currents by globular, ribbon and beads isomers” value [1]?
**A.** Its value is “found to inhibit HVA calcium currents”.

**Q.** What about the “rat HVA Ca^2+ channel I/Icontrol ± SEM (n)” value [1] of the same substance?
**A.** The value was 0.78 ± 0.03 (11).

**Q.** Which results are given for “Pu1.2: native full length Pu1.2, SEQ ID No. 41: G G C C S Y P P C I A N N P L C (GGCCSYPPCIANNPLC; not fully specified; ends and bridges not checked)”?
**A.** human α9α10 nAChR I/Icontrol ± SEM (n) (human α9α10 nAChR): 1.01 ± 0.04 (4); human α7 nAChR I/Icontrol ± SEM (n) (human α7 nAChR): 0.98 ± 0.03 (6); inhibition of HVA calcium currents by globular, ribbon and beads isomers [1]: found to inhibit HVA calcium currents; rat HVA Ca^2+ channel I/Icontrol ± SEM (n) [1]: 0.73 ± 0.02 (12)
